Experiments:
CDH13 = biological target: T1, CDH13 (human, UniProt P55290 139-693); experiment: cell microarray, library and confirmation screens
T1 construct: whole, on cells; also called hit #16
T1 sequence (looked up): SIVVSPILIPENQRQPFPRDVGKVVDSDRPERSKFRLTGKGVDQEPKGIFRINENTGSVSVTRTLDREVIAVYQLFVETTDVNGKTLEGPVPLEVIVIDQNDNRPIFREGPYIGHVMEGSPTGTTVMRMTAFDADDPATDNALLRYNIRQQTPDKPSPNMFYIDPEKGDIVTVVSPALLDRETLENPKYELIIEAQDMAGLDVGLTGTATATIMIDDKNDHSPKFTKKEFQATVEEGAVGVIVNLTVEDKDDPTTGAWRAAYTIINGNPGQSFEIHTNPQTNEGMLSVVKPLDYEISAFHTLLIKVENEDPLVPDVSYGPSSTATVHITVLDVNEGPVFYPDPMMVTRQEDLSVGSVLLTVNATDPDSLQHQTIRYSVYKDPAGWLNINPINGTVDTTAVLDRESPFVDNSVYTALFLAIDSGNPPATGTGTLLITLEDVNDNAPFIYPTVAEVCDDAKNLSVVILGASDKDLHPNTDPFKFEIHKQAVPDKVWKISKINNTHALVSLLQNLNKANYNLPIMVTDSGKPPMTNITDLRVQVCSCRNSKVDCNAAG

[1] = biological target: T2, cynomolgus CD30L expressed on HEK293 cells (cynomolgus, UniProt A0A7N9CVX7 1-234); experiment: flow cytometry, binding to HEK293-cyCD30L cells
T2 construct: whole, on cells; also called HEK293-cyCD30L; HEK-cyCD30L
T2 sequence: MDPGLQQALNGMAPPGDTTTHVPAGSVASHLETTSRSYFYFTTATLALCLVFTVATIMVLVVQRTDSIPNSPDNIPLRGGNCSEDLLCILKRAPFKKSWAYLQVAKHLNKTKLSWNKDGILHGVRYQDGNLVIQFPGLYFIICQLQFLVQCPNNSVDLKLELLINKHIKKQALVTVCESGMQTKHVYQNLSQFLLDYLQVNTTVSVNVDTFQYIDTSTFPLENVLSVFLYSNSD

recombinant human CD30L [2] = biological target: T3, recombinant human CD30L (human, UniProt P32971 63-234); experiment: ELISA, blocking of CD30-Fc on huCD30L; competitor CD30-Fc
T3 construct: Purified recombinant protein of ELISA, BLI, Carterra and KinExA; also called rhCD30L; huCD30L
T3 sequence (looked up): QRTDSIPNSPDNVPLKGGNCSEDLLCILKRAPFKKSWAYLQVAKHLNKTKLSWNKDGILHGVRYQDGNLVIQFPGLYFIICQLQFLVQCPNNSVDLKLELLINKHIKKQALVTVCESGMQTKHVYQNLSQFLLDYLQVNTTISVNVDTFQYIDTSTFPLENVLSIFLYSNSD

recombinant human CD30L [3] = biological target: T3, recombinant human CD30L; experiment: ELISA, binding to purified rhCD30L
[4] = biological target: T4, human CD30L expressed on B16 cells (human, UniProt P32971 1-234); experiment: flow cytometry, blocking of CD30-Fc on B16-huCD30L cells; competitor CD30-Fc
T4 construct: whole, on cells; B16 cell line transfected to express human CD30L; also called B16-huCD30L; B16-rhCD30L
T4 sequence (looked up): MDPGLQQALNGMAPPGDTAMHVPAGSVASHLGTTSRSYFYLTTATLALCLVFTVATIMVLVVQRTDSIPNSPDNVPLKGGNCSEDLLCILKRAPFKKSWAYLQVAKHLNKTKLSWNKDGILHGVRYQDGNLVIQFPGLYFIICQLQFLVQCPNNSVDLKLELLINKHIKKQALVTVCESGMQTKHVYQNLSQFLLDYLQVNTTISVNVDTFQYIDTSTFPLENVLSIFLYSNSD

[5] = biological target: T2, cynomolgus CD30L expressed on HEK293 …; experiment: flow cytometry, blocking of CD30-Fc on HEK293-cyCD30L cells; competitor CD30-Fc
[6] = biological target: T5, recombinant cynomolgus CD30L (cynomolgus, UniProt A0A7N9CVX7 63-234); experiment: ELISA, binding to purified rcyCD30L
T5 construct: Purified recombinant protein; also called rcyCD30L; cyno CD30L
T5 sequence: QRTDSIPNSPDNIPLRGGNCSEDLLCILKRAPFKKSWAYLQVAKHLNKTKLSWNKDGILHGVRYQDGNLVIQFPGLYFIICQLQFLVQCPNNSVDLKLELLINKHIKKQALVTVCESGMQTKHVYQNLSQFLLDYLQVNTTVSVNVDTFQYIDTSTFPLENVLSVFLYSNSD

[7] = biological target: T4, human CD30L expressed on B16 cells; experiment: cell-based or functional assay
[8] = biological target: T2, cynomolgus CD30L expressed on HEK293 …; experiment: cell-based or functional assay
[9] = biological target: T4, human CD30L expressed on B16 cells; experiment: flow cytometry, binding to B16-rhCD30L cells
[10] = biological target: T5, recombinant cynomolgus CD30L; experiment: ELISA, blocking of CD30-Fc on rcyCD30L; competitor CD30-Fc
recombinant human CD30L [11] = biological target: T3, recombinant human CD30L; experiment: recombinant blocking ELISA; competitor CD30
recombinant human CD30L [12] = biological target: T3, recombinant human CD30L; experiment: ELISA, binding to rhCD30L (OD 450 nm)
[13] = biological target: T4, human CD30L expressed on B16 cells; experiment: flow cytometry, binding to B16 cells expressing human CD30L (MFI)
recombinant human CD30L [14] = biological target: T3, recombinant human CD30L; experiment: ELISA on recombinant protein
recombinant mouse CD30L = biological target: T6, recombinant mouse CD30L (mouse, UniProt P32972 68-239); experiment: ELISA on recombinant protein
T6 construct: Purified recombinant protein; also called rmCD30L
T6 sequence (looked up): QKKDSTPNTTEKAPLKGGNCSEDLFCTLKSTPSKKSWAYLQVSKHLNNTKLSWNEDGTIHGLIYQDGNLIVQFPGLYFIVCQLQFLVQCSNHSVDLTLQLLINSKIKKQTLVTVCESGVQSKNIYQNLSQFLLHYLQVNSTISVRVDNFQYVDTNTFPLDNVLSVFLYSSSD

[15] = biological target: T5, recombinant cynomolgus CD30L; experiment: ELISA on recombinant protein
recombinant human CD30L [16] = biological target: T3, recombinant human CD30L; experiment: BLI, CD30 association to CD30L held by captured IgG; competitor rhCD30
Description: Briefly, individual anti-human biosensors were loaded with purified IgG (normalized to 10 μg/mL) and a baseline was measured for each biosensor. Biosensors were saturated with biotin and with polyclonal hulgG and a baseline was measured. Loaded biosensors were then allowed to bind CD30L and the association rate was measured for the binding. Biosensors were moved to buffer wells to measure the dissociation rate.

[17] = biological target: T4, human CD30L expressed on B16 cells; experiment: flow cytometry on B16 cells expressing hCD30L
[18] = biological target: T7, recombinant human CD30L protein (human, UniProt P32971 63-234); experiment: ELISA, HuCD30L
T7 construct: also called rhCD30L; huCD30L (ELISA)
T7 sequence (looked up): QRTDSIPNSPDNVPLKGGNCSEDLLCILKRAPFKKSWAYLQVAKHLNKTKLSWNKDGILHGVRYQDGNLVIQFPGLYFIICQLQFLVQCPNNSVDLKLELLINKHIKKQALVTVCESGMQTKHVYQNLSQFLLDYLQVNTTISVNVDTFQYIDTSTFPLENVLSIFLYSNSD

[19] = biological target: T8, human CD30L expressed on cells (human, UniProt P32971 1-234); experiment: flow cytometry, HuCD30L cells
T8 construct: also called huCD30L; B16-huCD30L
T8 sequence: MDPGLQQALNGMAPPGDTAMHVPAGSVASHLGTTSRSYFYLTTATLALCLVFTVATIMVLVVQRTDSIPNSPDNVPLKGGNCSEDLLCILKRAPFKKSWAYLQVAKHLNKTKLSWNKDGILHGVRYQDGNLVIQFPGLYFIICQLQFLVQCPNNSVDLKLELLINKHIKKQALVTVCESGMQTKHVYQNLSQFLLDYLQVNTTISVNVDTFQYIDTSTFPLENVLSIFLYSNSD

B1: anti-CD30L antibody clone 1 germlined with IgG1 constant region SEQ ID NO: 502 (antibody, V domains shown)
VH: QVQLQESGPGLVKPSETLSLTCTVSGGSISGYYWSWIRQPPGKGLEWIGYIFYSGYTKYNPSLKSRVTISVDTSKNQFSLKLSSVTAADTAVYYCARDRWDFDYWGQGTLVTVSS
VL: AIQMTQSPSSLSASVGDRVTITCRASQGIRNNLGWYQQKPGKAPKLLIYAESSLQSGVPSRFSGSGSGTDFTLTISSLQPEDFATYYCLQDFNYPYTFGQGTKLEIK
notes: copies: 2 + 2
Q: Does B1 bind (CDH13)?
A: no binding (tested: 5 µg/mL)

B2: anti-CD30L antibody clone 2 (antibody, V domains shown)
VH: EVQLVESGGGLVQPGRSLRLSCAASGFNFDDYAMHWVRQAPGKGLEWVSGISWRSGNIGYAGSVKGRFTISRDNAKNSLYLQMNSLRPEDSALYYCAKDKGIGFNWNYEGFDYWGQGTLVTVSS
VL: DIQMTQSPSSLSASVGDRVTITCRASQGISNHLAWFQQKPGKAPKSLIYAASSLQSGVPSKFSGSGSGTDFTLTISSLQPEDFATYYCQQYVTYPLTFGGGTKVEIK
notes: also called clone 2 parental
Q: What does the source list for B2?
A: EC50 [1]: 300 pM; IC50 (recombinant human CD30L [2]): 1350 pM; EC50 (recombinant human CD30L [3]): 40 pM; IC50 [4]: 790 pM; IC50 [5]: 340 pM; EC50 [6]: 50 pM; Inhibition of IL-8 release in a dual cell assay (B16-huCD30L cells + K299 cells) IC50 [7]: 810 pM; Inhibition of IL-8 release in a dual cell assay (HEK293-cyCD30L cells + K299 cells) IC50 [8]: 310 pM; EC50 [9]: 740 pM; IC50 [10]: 1280 pM

B3: anti-CD30L antibody clone 63 (antibody, V domains shown)
VH: EVQLVESGGGLVQPGGSLRLSCAASGFMFSSYSMNWVRQAPGKGLEWVSYISSSSSTIYDADSVKGRFTISRDDAKNSLYLQMNSLRDEDTAVYYCTREAYPGYYYNYMDVWGKGTTVTVSS
VL: DIQMTQSPSSLSASVGDRVTITCRASQSISSRLAWYQQKPGKAPNLLIYKASNLESGVPSRFSGSGSGTEFTLTISSLQPDDFATYYCQQYNSYSRTFGQGTKVEIK
notes: purified recombinant IgG (held by anti-human biosensors); mouse strain #1
Q: Which IC50 (recombinant human CD30L [11]) does the source give for B3 here?
A: 3180 pM

Q: And the “EC50 (read off the curve)” value (recombinant human CD30L [12])?
A: ~100 pM

Q: And the “EC50 (read off the curve)” value [13]?
A: ~1000 pM

Q: What about the “rhCD30L (+) ELISA” value (recombinant human CD30L [14]) of the same binder?
A: 1.87

Q: What about the “rmCD30L (+) ELISA” value (recombinant mouse CD30L) of the same binder?
A: 0.046

Q: And the “rcyCD30L (+) ELISA” value [15]?
A: 0.724

Q: What about the “rhCD30L:rhCD30 Blocking” value (recombinant human CD30L [16]) of the same binder?
A: 0.0592

Q: And the “hCD30L B16 (+) FLOW” value [17]?
A: 6.07e+06

B4: anti-CD30L clone 59 (antibody, V domains shown)
VH: QVQLVESGGGVVQPGRSLRLSCAASGFTFSIYGMHWVRQAPGKGLEWVAVIWYDGSNKYYVDSVKGRFTISRDNSKNSLYLQMNSLRAEDTAVYYCAREGNLFDYWGQGTLVTVSS
VL: DIQMTQSPSTLSASVGDRVTITCRASQSISSWLAWYQQKPGKAPKLLIYKASSLESGVPSRFSGSGSGTEFTLTISSLKPDDFATYYCQQYKSYYTFGQGTKLEIK
Q: For B4, which OD [18] is on record?
A: 0.06 OD

Q: What about the MFI [19] of the same binder?
A: 9790 MFI
